This assay deals with IL-15Rα expressed by TF-1 cells (human) (UniProt Q13261). Put plainly: cell-based or functional assay.
Chain of UniProt Q13261 (Q13261 31-267): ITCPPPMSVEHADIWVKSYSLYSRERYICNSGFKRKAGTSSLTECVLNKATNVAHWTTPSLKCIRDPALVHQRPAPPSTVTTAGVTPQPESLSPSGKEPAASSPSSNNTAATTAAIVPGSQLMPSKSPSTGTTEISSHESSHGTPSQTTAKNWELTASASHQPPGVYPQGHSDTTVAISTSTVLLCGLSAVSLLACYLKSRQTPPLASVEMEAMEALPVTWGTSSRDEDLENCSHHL

For the substance “FLAG-IL-15 L47D (from UniProt P40933 49-162) (ligand)”, the EC50 (pM), TF-1β proliferation was > 60 pM; the Maximal induction (% WT), TF-1β proliferation amounted to 0 % WT; the Relative activity (% WT), TF-1β proliferation was < 10 % WT.
As for “FLAG-IL-15 L44D (from UniProt P40933 49-162) (ligand)”, the EC50 (pM), TF-1β proliferation is > 20 pM; the Maximal induction (% WT), TF-1β proliferation came out at 0 % WT; the Relative activity (% WT), TF-1β proliferation is < 30 % WT.
